From the supplement of paper PMC10567573

B1: ZNF649 (parent)
chain: YQAGKPDALTKLEQGEPLWTLEDE
B2: KIAA0774 (parent)
chain: FEDEVKRLGWQQQAELQELEERLQ

Variants of: B1
Assay: protein stability index of a GFP-peptide fusion (GPS, HEK-293T) (PSI 1-6); higher = more stable
Conditions: c terminus: a fixed tail appended
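Also: lentivirally expressed fusions sorted by FACS into six bins by GFP to DsRed ratio, PSI derived from sequencing read proportions per bin multiplied by bin number.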

Variant | protein stability index
E22G | 3.88
E22S | 2.75
E22W | 2.35
E22T | 4.28
E22A | 4.8
E22F | 2.05
E22Q | 3.5
E22K | 3.46
E22M | 2.92
E22I | 3.75
E22V | 2.88
E22L | 3.6
E22Y | 2.62
E22D | 4.6
E22P | 4.39
E22C | 3.45
E22H | 3.3
E22N | 3.95
D23N | 3.25
D23G | 3.61
D23Y | 2.14
D23M | 2.99
D23S | 4.11
D23Q | 3.86
D23R | 4.16
D23F | 3.38
D23T | 3.32

Variant | protein stability index
D23I | 1.84
D23K | 3.51
D23H | 4.13
D23V | 3.81
D23W | 2.13
D23P | 3.78
D23C | 2.98
D23E | 4.57
D23L | 2.97
L21S | 4.52
L21F | 4.42
L21E | 5.3
L21Q | 4.23
L21I | 4.06
L21A | 4.47
L21D | 4.89
L21N | 4.39
L21G | 4.4
L21W | 3.52
L21Y | 4.95
L21T | 4.37
L21R | 4.55
L21H | 5.03
L21V | 2.31
L21C | 2.78
L21K | 4.79
L21M | 3.88

Variant | protein stability index
T20S | 3.73
T20R | 4.34
T20Q | 4.82
T20Y | 4.7
T20W | 2.67
T20V | 4.41
E24M | 3.88
E24V | 3.42
E24D | 4.71
E24Q | 4.02
E24P | 4.32
E24L | 3.53
E24H | 4.04
E24S | 4.27
E24W | 2.38
E24A | 3.74
E24F | 3.05
E24T | 4.42
E24I | 3.42
E24R | 4.48
E24N | 4.27
E24C | 3.49
E24G | 3.87
E24K | 4.41
E24Y | 3.29

Variants of: B2
Assay: as above
Conditions: c terminus: a fixed tail appended

Variant | protein stability index
E21Q | 4.67
E21I | 3.79
E21V | 4.14
E21R | 4.46
E21A | 4.69
E21M | 4.32
E21D | 4.27
E21C | 4.38
E21W | 2.91
E21G | 4.76
E21L | 4.71
E21K | 4.76
E21S | 4.17
W10P | 5.11
W10T | 5.13
W10N | 5.54
W10Q | 5.71
W10I | 4.66
W10A | 5.49
W10F | 4.41
W10G | 5.07
W10L | 5.35

Variant | protein stability index
W10S | 4.84
W10C | 4.97
W10E | 5.57
L19H | 4.08
L19S | 4.39
L19I | 4.27
L19N | 5.2
L19W | 3.92
L19G | 5.4
L19Q | 4.17
L19D | 5.22
L19V | 4.53
L19P | 5.42
L16M | 4.48
L16N | 4.87
L16D | 5.11
L16F | 4.15
L16E | 5.1
L16H | 4.84
L16I | 3.89
L16Q | 4.09
L16C | 4.75

Variant | protein stability index
L16G | 5.23
L16R | 4.04
L16W | 3.93
L16T | 5.08
L16S | 4.91
L16V | 4.86
E18G | 4.68
E18L | 2.63
E18A | 3.84
E18T | 4.47
E18H | 3.37
E18I | 1.74
E18R | 2.74
E18Y | 2.69
E18M | 2.89
E18P | 4.72
E18C | 3.17
E4Y | 3.64
E4M | 3.12
E4V | 3.33
E4N | 3.49
E4L | 2.47

Variant | protein stability index
E4I | 3.19
E4C | 2.93
E4F | 3.38
Q13M | 2.6
Q13R | 2.99
Q13K | 3.77
Q13E | 5.03
Q13H | 4.39
Q13L | 3.5
Q13P | 5.11
Q13T | 3.74
Q13Y | 3.58
Q13G | 5.35
Q13I | 3.44
L8A | 3.66
L8K | 3.57
L8D | 4.77
L8W | 3.4
L8Y | 3.72
L8G | 3.42
L8P | 4.45
L8H | 3.79
